From patent publication US20220144943A1 (INTEGRITY BIOVENTURES, published 2022)

What follows are binders tested against T1, CD47 (UniProt Q08722 19-139, limits assumed) (assay: Octet HTX BLI, antibody on anti-human Fc biosensors, antigen in solution, 1:1 fit).
T1 construct: also called Antigen; Cluster of differentiation 47
Experimental: The affinity of 9 humanized antibody combinations and the chimeric parental antibody was evaluated by Octet. Multi-concentration kinetic experiments were performed on the Octet HTX system (ForteBio). Anti-human Fc biosensors (ForteBio) were hydrated in sample diluent (0.1% BSA in PBS and 0.02% Tween 20) and preconditioned in pH 1.9 Glycine. Antigen was diluted by a 7 point, 3 fold serial dilution starting at 500 nM with sample diluent. Antibodies were diluted to 2 ug/mL with sample diluent and then immobilized onto anti-human Fc biosensors. After baselines were established for 30 seconds in sample diluent, the biosensors were moved to wells containing serially diluted antigen to measure the association and dissociation. […] The binding affinities were characterized by fitting the kinetic sensorgrams to a monovalent binding model (1:1 binding).

T1 sequence (Q08722 19-139 limits assumed): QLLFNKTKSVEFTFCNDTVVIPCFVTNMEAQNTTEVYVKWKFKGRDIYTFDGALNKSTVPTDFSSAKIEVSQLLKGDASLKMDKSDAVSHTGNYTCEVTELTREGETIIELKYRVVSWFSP

Row | Binder | Kd | koff | kon
1 | HC1 (SEQ ID NO: 123) + LC2 (SEQ ID NO: 127) (antibody, human IgG4 S228P, kappa, V domains shown, also called HC1 + LC2) VH: QVQLVQSGAEVKKPGASVKVSCKASGYAFTNYLIEWVRQAPGQGLEWMGVINPGSGATNYNQKFQGRVTMTADKSISTAYMELSRLRSDDTAVYFCARRVYFDYWGQGTLVTVSS VL: EIVMTQSPATLSLSPGERATLSCRASQSISDYLHWYQQKPGQAPRLLIKYASQSISGIPARFSGSGSGSDFTLTISSLEPEDFAVYYCQNGHSFPLTFGQGTKLEIKR | 26 nM | 0.0041 s⁻¹ | 160000 M⁻¹ s⁻¹
2 | HC1 (SEQ ID NO: 123) + LC1 (SEQ ID NO: 126) (antibody, human IgG4 S228P, kappa, V domains shown, also called HC1 + LC1) VH: QVQLVQSGAEVKKPGASVKVSCKASGYAFTNYLIEWVRQAPGQGLEWMGVINPGSGATNYNQKFQGRVTMTADKSISTAYMELSRLRSDDTAVYFCARRVYFDYWGQGTLVTVSS VL: EIVLTQSPATLSLSPGERATLSCRASQSISDYLHWYQQKPGQAPRLLIKYASQSITGIPARFSGSGSGTDFTLTISSLEPEDFAVYYCQNGHSFPLTFGQGTKLEIKR | 15 nM | 0.0025 s⁻¹ | 160000 M⁻¹ s⁻¹
3 | HC1 (SEQ ID NO: 123) + LC3 (SEQ ID NO: 128) (antibody, human IgG4 S228P, kappa, V domains shown, also called HC1 + LC3) VH: QVQLVQSGAEVKKPGASVKVSCKASGYAFTNYLIEWVRQAPGQGLEWMGVINPGSGATNYNQKFQGRVTMTADKSISTAYMELSRLRSDDTAVYFCARRVYFDYWGQGTLVTVSS VL: DIVMTQSPATLSLSPGERATLSCRASQSISDYLHWYQQKPGQAPRLLIKYASQSISGIPARFSGSGSGTDFTLTISSLEPEDFAVYYCQNGHSFPLTFGQGTRLEIKR | 15 nM | 0.0027 s⁻¹ | 180000 M⁻¹ s⁻¹
4 | HC2 (SEQ ID NO: 124) + LC1 (SEQ ID NO: 126) (antibody, human IgG4 S228P, kappa, V domains shown, also called HC2 + LC1) VH: QVQLVQSGAEVKKPGASVKVSCKASGYAFTNYLIEWVRQAPGQGLEWIGVINPGSGATNYNQKFQGRVTLTADKSISTAYMELSRLRSDDTAVYFCARRVYFDYWGQGTLVTVSS VL: EIVLTQSPATLSLSPGERATLSCRASQSISDYLHWYQQKPGQAPRLLIKYASQSITGIPARFSGSGSGTDFTLTISSLEPEDFAVYYCQNGHSFPLTFGQGTKLEIKR | 22 nM | 0.0035 s⁻¹ | 160000 M⁻¹ s⁻¹
5 | HC2 (SEQ ID NO: 124) + LC2 (SEQ ID NO: 127) (antibody, human IgG4 S228P, kappa, V domains shown, also called HC2 + LC2) VH: QVQLVQSGAEVKKPGASVKVSCKASGYAFTNYLIEWVRQAPGQGLEWIGVINPGSGATNYNQKFQGRVTLTADKSISTAYMELSRLRSDDTAVYFCARRVYFDYWGQGTLVTVSS VL: EIVMTQSPATLSLSPGERATLSCRASQSISDYLHWYQQKPGQAPRLLIKYASQSISGIPARFSGSGSGSDFTLTISSLEPEDFAVYYCQNGHSFPLTFGQGTKLEIKR | 18 nM | 0.003 s⁻¹ | 170000 M⁻¹ s⁻¹
6 | HC2 (SEQ ID NO: 124) + LC3 (SEQ ID NO: 128) (antibody, human IgG4 S228P, kappa, V domains shown, also called HC2 + LC3) VH: QVQLVQSGAEVKKPGASVKVSCKASGYAFTNYLIEWVRQAPGQGLEWIGVINPGSGATNYNQKFQGRVTLTADKSISTAYMELSRLRSDDTAVYFCARRVYFDYWGQGTLVTVSS VL: DIVMTQSPATLSLSPGERATLSCRASQSISDYLHWYQQKPGQAPRLLIKYASQSISGIPARFSGSGSGTDFTLTISSLEPEDFAVYYCQNGHSFPLTFGQGTRLEIKR | 23 nM | 0.0034 s⁻¹ | 150000 M⁻¹ s⁻¹
7 | HC3 (SEQ ID NO: 125) + LC1 (SEQ ID NO: 126) (antibody, human IgG4 S228P, kappa, V domains shown, also called HC3 + LC1) VH: QVQLVQSGAEVKKPGASVKVSCKASGYAFTNYLIEWVRQAPGQGLEWMGVINPGSGATNYNQKFQGRVTMTADKSTSTVYMELSSLRSEDTAVYFCARRVYFDYWGQGTLVTVSS VL: EIVLTQSPATLSLSPGERATLSCRASQSISDYLHWYQQKPGQAPRLLIKYASQSITGIPARFSGSGSGTDFTLTISSLEPEDFAVYYCQNGHSFPLTFGQGTKLEIKR | 12 nM | 0.0025 s⁻¹ | 220000 M⁻¹ s⁻¹
8 | HC3 (SEQ ID NO: 125) + LC2 (SEQ ID NO: 127) (antibody, human IgG4 S228P, kappa, V domains shown, also called HC3 + LC2) VH: QVQLVQSGAEVKKPGASVKVSCKASGYAFTNYLIEWVRQAPGQGLEWMGVINPGSGATNYNQKFQGRVTMTADKSTSTVYMELSSLRSEDTAVYFCARRVYFDYWGQGTLVTVSS VL: EIVMTQSPATLSLSPGERATLSCRASQSISDYLHWYQQKPGQAPRLLIKYASQSISGIPARFSGSGSGSDFTLTISSLEPEDFAVYYCQNGHSFPLTFGQGTKLEIKR | 29 nM | 0.0036 s⁻¹ | 120000 M⁻¹ s⁻¹
9 | HC3 (SEQ ID NO: 125) + LC3 (SEQ ID NO: 128) (antibody, human IgG4 S228P, kappa, V domains shown, also called HC3 + LC3) VH: QVQLVQSGAEVKKPGASVKVSCKASGYAFTNYLIEWVRQAPGQGLEWMGVINPGSGATNYNQKFQGRVTMTADKSTSTVYMELSSLRSEDTAVYFCARRVYFDYWGQGTLVTVSS VL: DIVMTQSPATLSLSPGERATLSCRASQSISDYLHWYQQKPGQAPRLLIKYASQSISGIPARFSGSGSGTDFTLTISSLEPEDFAVYYCQNGHSFPLTFGQGTRLEIKR | 15 nM | 0.0025 s⁻¹ | 170000 M⁻¹ s⁻¹
